Assay results published in patent publication US20140087995A1 (published 2014).
One block for each binder: values may come before it. Numbered stars: 1 amine (or outer) side, 2 acyl side, 3 side chain; on linkers, the order of the positions; unused ones are H or OH. Bridge positions count the residues as written; N and C are the ends. * marks the point of attachment. C20 diacid = O=C(O)CCCCCCCCCCCCCCCCCCC(=O)*; γGlu = O=C(O)[C@H](CCC(=O)[*:2])N[*:1]

Legend:
[1] = molecular target: T1, human calcitonin receptor (human, UniProt P30988 25-474); assay: cell-based or functional assay
T1 sequence (looked up): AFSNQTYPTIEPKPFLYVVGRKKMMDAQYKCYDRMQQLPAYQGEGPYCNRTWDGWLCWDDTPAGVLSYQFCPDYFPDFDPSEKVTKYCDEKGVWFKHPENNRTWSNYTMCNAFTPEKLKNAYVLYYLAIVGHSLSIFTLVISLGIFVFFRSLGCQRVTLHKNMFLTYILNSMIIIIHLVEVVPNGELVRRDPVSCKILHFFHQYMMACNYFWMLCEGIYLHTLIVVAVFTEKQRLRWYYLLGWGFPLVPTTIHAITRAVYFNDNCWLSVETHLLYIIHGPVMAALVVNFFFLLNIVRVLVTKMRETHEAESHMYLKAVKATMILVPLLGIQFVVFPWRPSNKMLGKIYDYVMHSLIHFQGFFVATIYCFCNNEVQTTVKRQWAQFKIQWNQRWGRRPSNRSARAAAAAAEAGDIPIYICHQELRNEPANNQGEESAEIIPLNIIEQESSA

[2] = molecular target: T2, human amylin receptor (amylin 3(a) receptor: human calcitonin receptor with RAMP-3) (human, UniProt P30988 25-474; O60896 24-148); assay: cell-based or functional assay
T2 sequence (looked up) 1: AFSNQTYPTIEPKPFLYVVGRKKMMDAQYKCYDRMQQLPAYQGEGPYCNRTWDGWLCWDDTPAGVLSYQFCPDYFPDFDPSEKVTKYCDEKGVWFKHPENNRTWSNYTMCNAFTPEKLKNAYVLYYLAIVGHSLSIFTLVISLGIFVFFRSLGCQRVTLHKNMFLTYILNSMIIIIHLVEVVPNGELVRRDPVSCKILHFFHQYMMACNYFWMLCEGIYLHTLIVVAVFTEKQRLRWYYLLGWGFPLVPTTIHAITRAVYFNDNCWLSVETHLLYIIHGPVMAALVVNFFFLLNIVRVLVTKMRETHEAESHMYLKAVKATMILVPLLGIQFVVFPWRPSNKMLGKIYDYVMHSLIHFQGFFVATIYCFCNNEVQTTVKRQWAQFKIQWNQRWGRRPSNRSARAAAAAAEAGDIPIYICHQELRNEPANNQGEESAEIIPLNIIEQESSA
T2 sequence (looked up) 2: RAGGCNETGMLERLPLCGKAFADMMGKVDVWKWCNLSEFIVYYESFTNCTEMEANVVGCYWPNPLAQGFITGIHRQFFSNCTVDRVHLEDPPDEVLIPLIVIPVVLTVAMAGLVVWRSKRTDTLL

Ratio hCT/hAmylin funct. [1]: 6.4
hCTR funct. EC50 [1]: 717 pM
hAmylin-R funct. EC50 [2]: 112 pM
B2: N^α1-[(4S)-4-carboxy-4-(19-carboxynonadecanoylamino)butanoyl]-[Glu14,Arg17,Pro21,Pro27,Pro31]-h-amylin (peptide)
peptide: {C20 diacid-γGlu}-KCNTATCATQRLAEFLRHSSPNFGAIPSSTPVGSNTY-NH2
modifications: disulfide 2-7
SMILES: CC[C@H](C)[C@H](NC(=O)[C@H](C)NC(=O)CNC(=O)[C@H](Cc1ccccc1)NC(=O)[C@H](CC(N)=O)NC(=O)[C@@H]1CCCN1C(=O)[C@H](CO)NC(=O)[C@H](CO)NC(=O)[C@H](Cc1c[nH]cn1)NC(=O)[C@H](CCCNC(=N)N)NC(=O)[C@H](CC(C)C)NC(=O)[C@H](Cc1ccccc1)NC(=O)[C@H](CCC(=O)O)NC(=O)[C@H](C)NC(=O)[C@H](CC(C)C)NC(=O)[C@H](CCCNC(=N)N)NC(=O)[C@H](CCC(N)=O)NC(=O)[C@@H](NC(=O)[C@H](C)NC(=O)[C@@H]1CSSC[C@H](NC(=O)[C@H](CCCCN)NC(=O)CC[C@H](NC(=O)CCCCCCCCCCCCCCCCCCC(=O)O)C(=O)O)C(=O)N[C@@H](CC(N)=O)C(=O)N[C@@H]([C@@H](C)O)C(=O)N[C@@H](C)C(=O)N[C@@H]([C@@H](C)O)C(=O)N1)[C@@H](C)O)C(=O)N1CCC[C@H]1C(=O)N[C@@H](CO)C(=O)N[C@@H](CO)C(=O)N[C@H](C(=O)N1CCC[C@H]1C(=O)N[C@H](C(=O)NCC(=O)N[C@@H](CO)C(=O)N[C@@H](CC(N)=O)C(=O)N[C@H](C(=O)N[C@@H](Cc1ccc(O)cc1)C(N)=O)[C@@H](C)O)C(C)C)[C@@H](C)O
notes: also called compound 31

Ratio hCT/hAmylin funct. [1]: 6.6
hCTR funct. EC50 [1]: 327 pM
hAmylin-R funct. EC50 [2]: 50 pM
B3: N^α1-[(4S)-4-carboxy-4-(19-carboxynonadecanoylamino)butanoyl]-[Glu14,Arg17,Pro21,Pro27,Pro34]-h-amylin (peptide)
peptide: {C20 diacid-γGlu}-KCNTATCATQRLAEFLRHSSPNFGAIPSSTNVGPNTY-NH2
modifications: disulfide 2-7
SMILES: CC[C@H](C)[C@H](NC(=O)[C@H](C)NC(=O)CNC(=O)[C@H](Cc1ccccc1)NC(=O)[C@H](CC(N)=O)NC(=O)[C@@H]1CCCN1C(=O)[C@H](CO)NC(=O)[C@H](CO)NC(=O)[C@H](Cc1c[nH]cn1)NC(=O)[C@H](CCCNC(=N)N)NC(=O)[C@H](CC(C)C)NC(=O)[C@H](Cc1ccccc1)NC(=O)[C@H](CCC(=O)O)NC(=O)[C@H](C)NC(=O)[C@H](CC(C)C)NC(=O)[C@H](CCCNC(=N)N)NC(=O)[C@H](CCC(N)=O)NC(=O)[C@@H](NC(=O)[C@H](C)NC(=O)[C@@H]1CSSC[C@H](NC(=O)[C@H](CCCCN)NC(=O)CC[C@H](NC(=O)CCCCCCCCCCCCCCCCCCC(=O)O)C(=O)O)C(=O)N[C@@H](CC(N)=O)C(=O)N[C@@H]([C@@H](C)O)C(=O)N[C@@H](C)C(=O)N[C@@H]([C@@H](C)O)C(=O)N1)[C@@H](C)O)C(=O)N1CCC[C@H]1C(=O)N[C@@H](CO)C(=O)N[C@@H](CO)C(=O)N[C@H](C(=O)N[C@@H](CC(N)=O)C(=O)N[C@H](C(=O)NCC(=O)N1CCC[C@H]1C(=O)N[C@@H](CC(N)=O)C(=O)N[C@H](C(=O)N[C@@H](Cc1ccc(O)cc1)C(N)=O)[C@@H](C)O)C(C)C)[C@@H](C)O
notes: also called compound 32

Ratio hCT/hAmylin funct. [1]: 1.1
hCTR funct. EC50 [1]: 87 pM
hAmylin-R funct. EC50 [2]: 82 pM
B4: N^α1-[(4S)-4-carboxy-4-(19-carboxynonadecanoylamino)butanoyl]-[Glu14,Arg17,Pro21,Pro27,Pro37]-h-amylin (peptide)
peptide: {C20 diacid-γGlu}-KCNTATCATQRLAEFLRHSSPNFGAIPSSTNVGSNTP-NH2
modifications: disulfide 2-7
SMILES: CC[C@H](C)[C@H](NC(=O)[C@H](C)NC(=O)CNC(=O)[C@H](Cc1ccccc1)NC(=O)[C@H](CC(N)=O)NC(=O)[C@@H]1CCCN1C(=O)[C@H](CO)NC(=O)[C@H](CO)NC(=O)[C@H](Cc1c[nH]cn1)NC(=O)[C@H](CCCNC(=N)N)NC(=O)[C@H](CC(C)C)NC(=O)[C@H](Cc1ccccc1)NC(=O)[C@H](CCC(=O)O)NC(=O)[C@H](C)NC(=O)[C@H](CC(C)C)NC(=O)[C@H](CCCNC(=N)N)NC(=O)[C@H](CCC(N)=O)NC(=O)[C@@H](NC(=O)[C@H](C)NC(=O)[C@@H]1CSSC[C@H](NC(=O)[C@H](CCCCN)NC(=O)CC[C@H](NC(=O)CCCCCCCCCCCCCCCCCCC(=O)O)C(=O)O)C(=O)N[C@@H](CC(N)=O)C(=O)N[C@@H]([C@@H](C)O)C(=O)N[C@@H](C)C(=O)N[C@@H]([C@@H](C)O)C(=O)N1)[C@@H](C)O)C(=O)N1CCC[C@H]1C(=O)N[C@@H](CO)C(=O)N[C@@H](CO)C(=O)N[C@H](C(=O)N[C@@H](CC(N)=O)C(=O)N[C@H](C(=O)NCC(=O)N[C@@H](CO)C(=O)N[C@@H](CC(N)=O)C(=O)N[C@H](C(=O)N1CCC[C@H]1C(N)=O)[C@@H](C)O)C(C)C)[C@@H](C)O
notes: also called compound 8

Further lines, the binder ahead of its results:

B1: N^α1-[(4S)-4-carboxy-4-(19-carboxynonadecanoylamino)butanoyl]-[Glu14,Arg17,Pro21,Pro27,Pro29]-h-amylin (peptide)
peptide: {C20 diacid-γGlu}-KCNTATCATQRLAEFLRHSSPNFGAIPSPTNVGSNTY-NH2
modifications: disulfide 2-7
SMILES: CC[C@H](C)[C@H](NC(=O)[C@H](C)NC(=O)CNC(=O)[C@H](Cc1ccccc1)NC(=O)[C@H](CC(N)=O)NC(=O)[C@@H]1CCCN1C(=O)[C@H](CO)NC(=O)[C@H](CO)NC(=O)[C@H](Cc1c[nH]cn1)NC(=O)[C@H](CCCNC(=N)N)NC(=O)[C@H](CC(C)C)NC(=O)[C@H](Cc1ccccc1)NC(=O)[C@H](CCC(=O)O)NC(=O)[C@H](C)NC(=O)[C@H](CC(C)C)NC(=O)[C@H](CCCNC(=N)N)NC(=O)[C@H](CCC(N)=O)NC(=O)[C@@H](NC(=O)[C@H](C)NC(=O)[C@@H]1CSSC[C@H](NC(=O)[C@H](CCCCN)NC(=O)CC[C@H](NC(=O)CCCCCCCCCCCCCCCCCCC(=O)O)C(=O)O)C(=O)N[C@@H](CC(N)=O)C(=O)N[C@@H]([C@@H](C)O)C(=O)N[C@@H](C)C(=O)N[C@@H]([C@@H](C)O)C(=O)N1)[C@@H](C)O)C(=O)N1CCC[C@H]1C(=O)N[C@@H](CO)C(=O)N1CCC[C@H]1C(=O)N[C@H](C(=O)N[C@@H](CC(N)=O)C(=O)N[C@H](C(=O)NCC(=O)N[C@@H](CO)C(=O)N[C@@H](CC(N)=O)C(=O)N[C@H](C(=O)N[C@@H](Cc1ccc(O)cc1)C(N)=O)[C@@H](C)O)C(C)C)[C@@H](C)O
notes: also called compound 37
Ratio hCT/hAmylin funct. [1]: 4
hCTR funct. EC50 [1]: 372 pM
hAmylin-R funct. EC50 [2]: 92 pM

B5: N^α1-[(4S)-4-carboxy-4-(19-carboxynonadecanoylamino)butanoyl]-[His14,Arg17,Pro21,Pro27,Glu35]-h-amylin (peptide)
peptide: {C20 diacid-γGlu}-KCNTATCATQRLAHFLRHSSPNFGAIPSSTNVGSETY-NH2
modifications: disulfide 2-7
SMILES: CC[C@H](C)[C@H](NC(=O)[C@H](C)NC(=O)CNC(=O)[C@H](Cc1ccccc1)NC(=O)[C@H](CC(N)=O)NC(=O)[C@@H]1CCCN1C(=O)[C@H](CO)NC(=O)[C@H](CO)NC(=O)[C@H](Cc1c[nH]cn1)NC(=O)[C@H](CCCNC(=N)N)NC(=O)[C@H](CC(C)C)NC(=O)[C@H](Cc1ccccc1)NC(=O)[C@H](Cc1c[nH]cn1)NC(=O)[C@H](C)NC(=O)[C@H](CC(C)C)NC(=O)[C@H](CCCNC(=N)N)NC(=O)[C@H](CCC(N)=O)NC(=O)[C@@H](NC(=O)[C@H](C)NC(=O)[C@@H]1CSSC[C@H](NC(=O)[C@H](CCCCN)NC(=O)CC[C@H](NC(=O)CCCCCCCCCCCCCCCCCCC(=O)O)C(=O)O)C(=O)N[C@@H](CC(N)=O)C(=O)N[C@@H]([C@@H](C)O)C(=O)N[C@@H](C)C(=O)N[C@@H]([C@@H](C)O)C(=O)N1)[C@@H](C)O)C(=O)N1CCC[C@H]1C(=O)N[C@@H](CO)C(=O)N[C@@H](CO)C(=O)N[C@H](C(=O)N[C@@H](CC(N)=O)C(=O)N[C@H](C(=O)NCC(=O)N[C@@H](CO)C(=O)N[C@@H](CCC(=O)O)C(=O)N[C@H](C(=O)N[C@@H](Cc1ccc(O)cc1)C(N)=O)[C@@H](C)O)C(C)C)[C@@H](C)O
notes: also called compound 30
Ratio hCT/hAmylin funct. [1]: 12.6
hCTR funct. EC50 [1]: 1680 pM
hAmylin-R funct. EC50 [2]: 134 pM

B6: N^α1-[(4S)-4-carboxy-4-[[(4S)-4-carboxy-4-(19-carboxynonadecanoylamino)butanoyl]amino]butanoyl]-[Glu14,Arg17,Pro21,Pro27,Pro37]-h-amylin (peptide)
peptide: {C20 diacid-γGlu-γGlu}-KCNTATCATQRLAEFLRHSSPNFGAIPSSTNVGSNTP-NH2
modifications: disulfide 2-7
SMILES: CC[C@H](C)[C@H](NC(=O)[C@H](C)NC(=O)CNC(=O)[C@H](Cc1ccccc1)NC(=O)[C@H](CC(N)=O)NC(=O)[C@@H]1CCCN1C(=O)[C@H](CO)NC(=O)[C@H](CO)NC(=O)[C@H](Cc1c[nH]cn1)NC(=O)[C@H](CCCNC(=N)N)NC(=O)[C@H](CC(C)C)NC(=O)[C@H](Cc1ccccc1)NC(=O)[C@H](CCC(=O)O)NC(=O)[C@H](C)NC(=O)[C@H](CC(C)C)NC(=O)[C@H](CCCNC(=N)N)NC(=O)[C@H](CCC(N)=O)NC(=O)[C@@H](NC(=O)[C@H](C)NC(=O)[C@@H]1CSSC[C@H](NC(=O)[C@H](CCCCN)NC(=O)CC[C@H](NC(=O)CC[C@H](NC(=O)CCCCCCCCCCCCCCCCCCC(=O)O)C(=O)O)C(=O)O)C(=O)N[C@@H](CC(N)=O)C(=O)N[C@@H]([C@@H](C)O)C(=O)N[C@@H](C)C(=O)N[C@@H]([C@@H](C)O)C(=O)N1)[C@@H](C)O)C(=O)N1CCC[C@H]1C(=O)N[C@@H](CO)C(=O)N[C@@H](CO)C(=O)N[C@H](C(=O)N[C@@H](CC(N)=O)C(=O)N[C@H](C(=O)NCC(=O)N[C@@H](CO)C(=O)N[C@@H](CC(N)=O)C(=O)N[C@H](C(=O)N1CCC[C@H]1C(N)=O)[C@@H](C)O)C(C)C)[C@@H](C)O
notes: also called compound 14
Ratio hCT/hAmylin funct. [1]: 1.6
hCTR funct. EC50 [1]: 238 pM
hAmylin-R funct. EC50 [2]: 146 pM
